Our source for the Kd values is PMC2749330 (The Biochemical journal, 2008).

In this assay the target is recombinant CLEC-2, monomeric, as used in the surface plasmon resonance studies (UniProt Q9P126 55-229). In words: SPR.
recombinant CLEC-2, monomeric, as used in the surface plasmon resonance studies, sequence (Q9P126 55-229): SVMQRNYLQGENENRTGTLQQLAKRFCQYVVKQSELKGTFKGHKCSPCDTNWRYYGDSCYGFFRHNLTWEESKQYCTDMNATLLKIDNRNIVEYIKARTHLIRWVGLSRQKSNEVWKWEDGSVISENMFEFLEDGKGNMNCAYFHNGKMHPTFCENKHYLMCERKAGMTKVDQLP

B1: recombinant podoplanin fused at its C-terminus to the human IgG1 Fc region (Fc fusion, UniProt Q86YL7 23-131, looked up)
chain: ASTGQPEDDTETTGLEGGVAMPGAEDDVVTPGTSEDRYKSGLTTLVATSVNSVTGIRIEDLPTSESTVHAQEQSPSATASNVATSHSTEKVDGDTQTTVEKDGLSTVTL
Take B1: the Kd turned out to be 24.5 ± 3.7 µM.
